{
  "source": "patent US20240240209A1",
  "about": "“SYNTHESIS OF ENANTIOPURE CIS-A-IRONE FROM A RENEWABLE CARBON SOURCE” (Agency for Science, Technology and Research, priority 2021, published 2024)",
  "key": {"[1]": {"test": "Steady-state kinetics of purified pMT enzyme, substrate psi-ionone", "type": "biochemical", "settings": "pMT10 vs pMT7 (Table 3)", "experimental": "The steady-state kinetic parameters of pMT7 were determined (Table 3). […] While determining the steady-state kinetics of pMT7, it was noticed that the reaction with purified pMT7 stopped at 6 h before significant conversion had taken place (FIG. 15a). Moreover, while using cell extracts containing pMT7, the reaction reached a plateau after 1-day incubation (FIG. 15b). […] Since pMT7 is an hexamer in solution^10, its oligomeric state before and after the reaction was examined. […] (28 C) overnight as compared to 4° C. […] It was further tested if the enzyme was subject to feedback inhibition, as the cofactor product SAH is a potent inhibitor of methyltransferases^12.\nTo determine the purified enzyme kinetics and in vivo production, the reaction mixture was extracted with 0.5× or 1× volume of ethyl acetate and the organic phase was diluted appropriately before subjected to GCMS analysis. The samples were analyzed on an Agilent Intuvo 9000 GC system equipped with Agilent DB-WAX Ultra Inert Intuvo GC column (30 m×250 μm×0.25 μm) and Agilent 5977B mass spectrometry with high efficiency source. 1 μl organic phase was injected at the split ratio 10:1 at 250° C. […] The concentration of psi-ionone and irone were calculated by interpolating with a standard curve prepared by synthetic standards."}, "[2]": {"test": "Purified pMT7/pMT10 reaction with auxiliary enzymes mtn and mtaD", "type": "biochemical", "settings": "for cis-α-irone amount relative to pMT7 reaction alone: purified enzyme", "description": "All the purified enzyme reactions were done in triplicates.\nAn alternative strategy to reduce SAH inhibition is to introduce auxiliary enzymes that degrade SAH12 (FIG. 18a). […] Noteworthy, with mtaD enzyme, cis-α-irone production by pMT10 was improved by ˜2.5 fold as compared to pMT10 reaction alone (FIG. 3c). […] This somewhat agrees with the effect of mutating D135, which abolishes the hydrogen bond interaction between pMT7 and the amine group of the adenine moiety."}, "[3]": {"test": "Fed-batch production of cis-α-irone in 5 L bioreactor", "type": "cell-based, Escherichia coli", "settings": "10% DO, another 24 h after feeding stopped", "experimental": "FIGS. 5a and 5b show the time-course profiles of OD600, cis-α-irone, β-irone and psi-ionone titers when DO was controlled at 2% and 10% respectively.\nLastly, a single-phase fed-batch process was tested in a 5 L bioreactor. Even though 2O31 ΔmetJ strain produced a higher titer of cis-α-irone, its growth seemed to be impeded during fermentation. Thus, 2O31-pMT10 strain was tested. The optimized bioprocess for α-ionone was applied^8, in which the glucose feeding rate was set at 10 g/h and the glucose concentration was kept between 0-5 g/L. Two different dissolved oxygen (DO) levels were tested: 2% and 10%. Under these DO settings, evaporation was kept at minimum which is <0.05%. […] Subsequently, cis-α-irone production became faster at 2% DO than 10% DO. At 113 h, when glucose feeding was stopped, approximately 109 mg/L and 106 mg/L cis-α-irone were produced at 2% and 10% DO respectively. By continuing incubating the cultures for another 24 h, a final titer of approximately 153 mg/L and 172 mg/L cis-α-irone were produced at 2% and 10% DO respectively. Simultaneously, a decrease in psi-ionone concentration was observed during the last 24 h, indicating psi-ionone was converted to cis-α-irone. Other DO levels may also be used, for example 15%. […]"}},
  "data": [
    {"molecule": "pMT10: pMT1 with Y200F S182E L273V L180A A202L Y65F C156A T91P (protein, Modified from pMT1, pMT1 with Y200F S182E L273V L180A A202L Y65F C156A T91P) MPQEARTPQQQVTADEVGDWYDKFGEVYHLTLGESVHCGLWFPPDAPVPQDMELVTMSSQAQDRFTDYLIETLDPKAGQHLLDIGCGTGRPALKAARQRGIAVTGVAVSKEQIAAANRLAAGHGLTERLTFEVADAMRLPYEDESFDCAWAIESLAHMDRAKALGEAWRVLKPGGDLLVAEEVVTEELTEPETALFETLFALNVPPRLGEFFDIVSGAGFHTLSLKDLSANLAMTMNVFALGVYSRRAEFTERFGAEFVDGLLAGLGSAQETVIRKTRFFMATLRKPAV", "values": [
      {"measurement": "improvement of catalytic efficiency", "setting": "[1]", "result": 10, "unit": "fold"},
      {"measurement": "cis-α-irone production improvement with mtaD enzyme", "setting": "[2]; as compared to pMT10 reaction alone", "result": "~2.5", "unit": "fold"},
      {"measurement": "cis-α-irone amount relative to pMT7 reaction alone", "setting": "[2]; with mtaD", "result": "~6.5", "unit": "fold"},
      {"measurement": "cis-α-irone amount relative to pMT7 reaction alone", "setting": "[2]; without mtaD", "result": "~4.5", "unit": "fold"},
      {"measurement": "final titer of cis-α-irone", "setting": "[3]", "result": "~172", "unit": "mg/L"}
    ]}
  ]
}
